Test results from patent US20220380433A1.

Legend:
[1] = target: H63 CAR as expressed from H63 CAR-2A-TMEM59, on H63 CAR-2A-TMEM59-T lymphocytes; assay: flow cytometry; biotin-protein L and PE-streptavidin on H63 CAR-2A-TMEM59-T lymphocytes
[2] = target: H63 CAR (CD8 signal peptide-H63-human CD8 hinge region-human CD8 transmembrane region-human 4-1BB costimulatory domain-CD3zeta signaling domain), on H63 CAR-T lymphocytes; assay: flow cytometry; biotin-protein L and PE-streptavidin on H63 CAR-T lymphocytes
Chain of H63 CAR (CD8 signal peptide-H63-human CD8 hinge region-human CD8 transmembrane region-human 4-1BB costimulatory domain-CD3zeta signaling domain), on H63 CAR-T lymphocytes (chain, as listed by the source): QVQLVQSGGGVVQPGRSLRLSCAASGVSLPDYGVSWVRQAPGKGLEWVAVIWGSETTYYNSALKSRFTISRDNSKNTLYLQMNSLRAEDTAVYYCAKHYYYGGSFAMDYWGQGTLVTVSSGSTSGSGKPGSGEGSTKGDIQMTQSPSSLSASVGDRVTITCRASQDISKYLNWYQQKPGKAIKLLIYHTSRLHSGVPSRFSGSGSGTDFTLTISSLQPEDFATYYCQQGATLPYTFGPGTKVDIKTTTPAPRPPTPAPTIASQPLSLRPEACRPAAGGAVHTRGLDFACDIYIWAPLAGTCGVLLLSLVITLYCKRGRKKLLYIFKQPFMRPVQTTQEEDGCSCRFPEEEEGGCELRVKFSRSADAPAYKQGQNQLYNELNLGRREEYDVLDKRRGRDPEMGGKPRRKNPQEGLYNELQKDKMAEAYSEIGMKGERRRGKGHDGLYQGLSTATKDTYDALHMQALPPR

Chain of H63 CAR as expressed from H63 CAR-2A-TMEM59, on H63 CAR-2A-TMEM59-T lymphocytes (chain, as listed by the source): as above

biotin-protein L (ACROBIOSYSTEMS, RPL-P814R)
CAR positive cells % (protein L-positive) [1]: 83.2%
CAR positive cells % (protein L-positive) [2]: 82.7%
